{"source": "patent US20170296640A1", "about": "(IMMATICS BIOTECHNOLOGIES, published 2017)", "data": [{"target": "T1, HLA-A*02:01 (peptide-receptive MHC class I monomer after UV cleavage of the UV-sensitive ligand) (human)", "T1 construct": "MHC monomers loaded by UV-ligand exchange and captured on streptavidin plates", "assay": "UV ligand-exchange ELISA; exchange yield grade (+ >=10%, ++ >=20%, +++ >=50%, ++++ >=75%)", "description": "Candidate peptides for T cell based therapies according to the present invention were further tested for their MHC binding capacity (affinity). The individual peptide-MHC complexes were produced by UV-ligand exchange, where a UV-sensitive peptide is cleaved upon UV-irradiation, and exchanged with the peptide of interest as analyzed. Only peptide candidates that can effectively bind and stabilize the peptide-receptive MHC molecules prevent dissociation of the MHC complexes. To determine the yield of the exchange reaction, an ELISA was performed based on the detection of the light chain (β2m) of stabilized MHC complexes. The assay was performed as generally described in Rodenko et al. (Rodenko et al., 2006).\n96 well MAXISorp plates (NUNC) were coated over night with 2 ug/ml streptavidin in PBS at room temperature, washed 4× and blocked for 1 h at 37° C. in 2% BSA containing blocking buffer. Refolded HLA-A*02:01/MLA-001 monomers served as standards, covering the range of 15-500 ng/ml. Peptide-MHC monomers of the UV-exchange reaction were diluted 100 fold in blocking buffer. Samples were incubated for 1 h at 37° C., washed four times, incubated with 2 ug/ml HRP conjugated anti-β2m for 1 h at 37° C., washed again and detected with TMB solution that is stopped with […]. Absorption was measured at 450 nm. Candidate peptides that show a high exchange yield (preferably higher than 50%, most preferred higher than 75%) are generally preferred for a generation and production of antibodies or fragments thereof, and/or T cell receptors or fragments thereof, as they show sufficient avidity to the MHC molecules and prevent dissociation of the MHC complexes.", "units": {"peptide exchange yield": "%"}, "values": [{"binder": "SLLDNLLTI", "note": "[SLLDNLLTI (SEQ ID NO: 116)]", "peptide exchange yield": "50 to 75"}, {"binder": "VLDGMIYAI", "note": "[VLDGMIYAI (SEQ ID NO: 118)]", "peptide exchange yield": "50 to 75"}, {"binder": "LLSGQLPTI", "note": "[LLSGQLPTI (SEQ ID NO: 1)]", "peptide exchange yield": "50 to 75"}, {"binder": "FLFEDFVEV", "note": "[FLFEDFVEV (SEQ ID NO: 140)]", "peptide exchange yield": "50 to 75"}, {"binder": "FLASPLVAI", "note": "[FLASPLVAI (SEQ ID NO: 139)]", "peptide exchange yield": "≥ 75"}, {"binder": "YQYPFVLGL", "note": "[YQYPFVLGL (SEQ ID NO: 110)]", "peptide exchange yield": "≥ 75"}, {"binder": "KLFDASPTFFA", "note": "[KLFDASPTFFA (SEQ ID NO: 128)]", "peptide exchange yield": "50 to 75"}, {"binder": "ILNPVTTKL", "note": "[ILNPVTTKL (SEQ ID NO: 149)]", "peptide exchange yield": "50 to 75"}, {"binder": "SLFAAISGMIL", "note": "[SLFAAISGMIL (SEQ ID NO: 102)]", "peptide exchange yield": "50 to 75"}, {"binder": "FVIDSFEEL", "note": "[FVIDSFEEL (SEQ ID NO: 113)]", "peptide exchange yield": "50 to 75"}, {"binder": "FLGELTLQL", "note": "[FLGELTLQL (SEQ ID NO: 141)]", "peptide exchange yield": "50 to 75"}, {"binder": "LLIDIIHFL", "note": "[LLIDIIHFL (SEQ ID NO: 115)]", "peptide exchange yield": "≥ 75"}, {"binder": "VIFSYVLGV", "note": "[VIFSYVLGV (SEQ ID NO: 130)]", "peptide exchange yield": "50 to 75"}, {"binder": "GLITQVDKL", "note": "[GLITQVDKL (SEQ ID NO: 144)]", "peptide exchange yield": "50 to 75"}, {"binder": "GLLQQPPAL", "note": "[GLLQQPPAL (SEQ ID NO: 146)]", "peptide exchange yield": "50 to 75"}, {"binder": "SLQDHLEKV", "note": "[SLQDHLEKV (SEQ ID NO: 103)]", "peptide exchange yield": "50 to 75"}, {"binder": "ALLSAFVQL", "note": "[ALLSAFVQL (SEQ ID NO: 123)]", "peptide exchange yield": "50 to 75"}, {"binder": "VLLGLPLLV", "note": "[VLLGLPLLV (SEQ ID NO: 104)]", "peptide exchange yield": "50 to 75"}, {"binder": "ALGRLGILSV", "note": "[ALGRLGILSV (SEQ ID NO: 134)]", "peptide exchange yield": "50 to 75"}, {"binder": "GLDTVVALL", "note": "[GLDTVVALL (SEQ ID NO: 11)]", "peptide exchange yield": "50 to 75"}, {"binder": "FLLVGTQIDL", "note": "[FLLVGTQIDL (SEQ ID NO: 10)]", "peptide exchange yield": "50 to 75"}, {"binder": "ALEELTGFREL", "note": "[ALEELTGFREL (SEQ ID NO: 133)]", "peptide exchange yield": "20 to 50"}, {"binder": "TLHAVDVTL", "note": "[TLHAVDVTL (SEQ ID NO: 143)]", "peptide exchange yield": "50 to 75"}, {"binder": "FIFGIVHLL", "note": "[FIFGIVHLL (SEQ ID NO: 136)]", "peptide exchange yield": "50 to 75"}, {"binder": "FIQQERFFL", "note": "[FIQQERFFL (SEQ ID NO: 137)]", "peptide exchange yield": "50 to 75"}, {"binder": "GLLHEVVSL", "note": "[GLLHEVVSL (SEQ ID NO: 145)]", "peptide exchange yield": "50 to 75"}, {"binder": "VLATILAQL", "note": "[VLATILAQL (SEQ ID NO: 117)]", "peptide exchange yield": "≥ 75"}, {"binder": "ALTGLQFQL", "note": "[ALTGLQFQL (SEQ ID NO: 135)]", "peptide exchange yield": "50 to 75"}, {"binder": "FVAPPTAAV", "note": "[FVAPPTAAV (SEQ ID NO: 125)]", "peptide exchange yield": "50 to 75"}, {"binder": "SLFEASQQL", "note": "[SLFEASQQL (SEQ ID NO: 129)]", "peptide exchange yield": "50 to 75"}, {"binder": "FLYEDSKSVRL", "note": "[FLYEDSKSVRL (SEQ ID NO: 142)]", "peptide exchange yield": "50 to 75"}, {"binder": "VQAVSIPEV", "note": "[VQAVSIPEV (SEQ ID NO: 107)]", "peptide exchange yield": "50 to 75"}, {"binder": "LLSDPTPGA", "note": "[LLSDPTPGA (SEQ ID NO: 14)]", "peptide exchange yield": "20 to 50"}, {"binder": "YLFQFSAAL", "note": "[YLFQFSAAL (SEQ ID NO: 109)]", "peptide exchange yield": "50 to 75"}, {"binder": "GLLLLVPLL", "note": "[GLLLLVPLL (SEQ ID NO: 12)]", "peptide exchange yield": "50 to 75"}, {"binder": "GLSDISPST", "note": "[GLSDISPST (SEQ ID NO: 114)]", "peptide exchange yield": "20 to 50"}, {"binder": "FLAILPEEV", "note": "[FLAILPEEV (SEQ ID NO: 112)]", "peptide exchange yield": "50 to 75"}, {"binder": "VLQDQVDEL", "note": "[VLQDQVDEL (SEQ ID NO: 132)]", "peptide exchange yield": "20 to 50"}, {"binder": "HLMEENMIVYV", "note": "[HLMEENMIVYV (SEQ ID NO: 127)]", "peptide exchange yield": "50 to 75"}, {"binder": "VLLGTTWAL", "note": "[VLLGTTWAL (SEQ ID NO: 120)]", "peptide exchange yield": "50 to 75"}, {"binder": "FLGVVVPTV", "note": "[FLGVVVPTV (SEQ ID NO: 124)]", "peptide exchange yield": "50 to 75"}, {"binder": "SLDQSTWNV", "note": "[SLDQSTWNV (SEQ ID NO: 101)]", "peptide exchange yield": "≥ 75"}, {"binder": "HLVPASWKL", "note": "[HLVPASWKL (SEQ ID NO: 13)]", "peptide exchange yield": "50 to 75"}, {"binder": "VLYELLQYI", "note": "[VLYELLQYI (SEQ ID NO: 106)]", "peptide exchange yield": "≥ 75"}, {"binder": "YLTGYNFTL", "note": "[YLTGYNFTL (SEQ ID NO: 121)]", "peptide exchange yield": "50 to 75"}, {"binder": "VLIEETDQL", "note": "[VLIEETDQL (SEQ ID NO: 131)]", "peptide exchange yield": "20 to 50"}, {"binder": "ICAGHVPGV", "note": "[ICAGHVPGV (SEQ ID NO: 148)]", "peptide exchange yield": "50 to 75"}, {"binder": "AISEAQESV", "note": "[AISEAQESV (SEQ ID NO: 122)]", "peptide exchange yield": "20 to 50"}, {"binder": "VLTPVILQV", "note": "[VLTPVILQV (SEQ ID NO: 105)]", "peptide exchange yield": "50 to 75"}, {"binder": "GLSEYQRNFL", "note": "[GLSEYQRNFL (SEQ ID NO: 147)]", "peptide exchange yield": "50 to 75"}, {"binder": "NLINNIFEL", "note": "[NLINNIFEL (SEQ ID NO: 138)]", "peptide exchange yield": "≥ 75"}, {"binder": "YLLDTLLSL", "note": "[YLLDTLLSL (SEQ ID NO: 111)]", "peptide exchange yield": "50 to 75"}, {"binder": "YLAPENGYLM", "note": "[YLAPENGYLM (SEQ ID NO: 108)]", "peptide exchange yield": "50 to 75"}, {"binder": "ELCDIILRV", "note": "[ELCDIILRV (SEQ ID NO: 119)]", "peptide exchange yield": "50 to 75"}]}]}
